The results in this text go back to patent US9073989B2, “Antibiotic comprising an antibody mimetic, its preparation methods and uses thereof” (PROTEIN DESIGN LAB, LTD, priority 2011, dated 2015).

Entries after “also recorded” stand apart in the source; their conditions may differ.

The test deals with Mycobacterium tuberculosis (H37Rv, clinical drug-resistant strain94120). It counts as cell-based.

B1: Colicin Ia (protein, UniProt P06716 1-626, looked up)
Colicin-Ia: MSDPVRITNPGAESLGYDSDGHEIMAVDIYVNPPRVDVFHGTPPAWSSFGNKTIWGGNEWVDDSPTRSDIEKRDKEITAYKNTLSAQQKENENKRTEAGKRLSAAIAAREKDENTLKTLRAGNADAADITRQEFRLLQAELREYGFRTEIAGYDALRLHTESRMLFADADSLRISPREARSLIEQAEKRQKDAQNADKKAADMLAEYERRKGILDTRLSELEKNGGAALAVLDAQQARLLGQQTRNDRAISEARNKLSSVTESLNTARNALTRAEQQLTQQKNTPDGKTIVSPEKFPGRSSTNHSIVVSGDPRFAGTIKITTSAVIDNRANLNYLLSHSGLDYKRNILNDRNPVVTEDVEGDKKIYNAEVAEWDKLRQRLLDARNKITSAESAVNSARNNLSARTNEQKHANDALNALLKEKENIRNQLSGINQKIAEEKRKQDELKATKDAINFTTEFLKSVSEKYGAKAEQLAREMAGQAKGKKIRNVEEALKTYEKYRADINKKINAKDRAAIAAALESVKLSDISSNLNRFSRGLGYAGKFTSLADWITEFGKAVRTENWRPLFVKTETIIAGNAATALVALVFSILTGSALGIIGYGLLMAVTGALIDESLVEKANKFWGI
notes: Wild-type bacterial toxin secreted by E. coli forming ion channels
Take B1: the “growth of bacteria lawn, strain H37Rv, re-culture test” value is on record as “quantity of cells growth; also recorded: a mass of bacteria lawn growing”.

B2: PMC-AM1: Fusion of antibody mimetic AM1 (VHCDR1-VHFR2-VLCDR3, Seq ID No.2) to C-terminus of Colicin Ia; Seq ID No.6 (protein)
chain: SDPVRITNPGAESLGYDSDGHEIMAVDIYVNPPRVDVFHGTPPAWSSFGNKTIWGGNEWVDDSPTRSDIEKRDKEITAYKNTLSAQQKENENKRTEAGKRLSAAIAAREKDENTLKTLRAGNADAADITRQEFRLLQAELREYGFRTEIAGYDALRLHTESRMLFADADSLRISPREARSLIEQAEKRQKDAQNADKKAADMLAEYERRKGILDTRLSELEKNGGAALAVLDAQQARLLGQQTRNDRAISEARNKLSSVTESLNTARNALTRAEQQLTQQKNTPDGKTIVSPEKFPGRSSTNHSIVVSGDPRFAGTIKITTSAVIDNRANLNYLLSHSGLDYKRNILNDRNPVVTEDVEGDKKIYNAEVAEWDKLRQRLLDARNKITSAESAVNSARNNLSARTNEQKHANDALNALLKEKENIRNQLSGINQKIAEEKRKQDELKATKDAINFTTEFLKSVSEKYGAKAEQLAREMAGQAKGKKIRNVEEALKTYEKYRADINKKINAKDRAAIAAALESVKLSDISSNLNRFSRGLGYAGKFTSLADWITEFGKAVRTENWRPLFVKTETIIAGNAATALVALVFSILTGSALGIIGYGLLMAVTGALIDESLVEKANKFWGISYWLHWIKQRPGQGLWIGSQSTHVPRT
modifications: The amino acid sequence of antibiotic PMC-AM1
For B2, the “bacteriostatic or bactericidal role” value was “bactericidal effect rather than simply antibacterial effect”; the “growth of bacteria lawn, strain94120” value is on record as “no cell growth; also recorded: no growth of bacteria lawn”; the “growth of bacteria lawn, strain H37Rv, re-culture test” value is “still no cell growth; also recorded: always no growth of bacteria lawn”.
